Laboratory results: patent publication US20110117017A1, “PEPTIDES WITH PROPERTIES OF AN […] FOR THE ALPHA 1A […] RECEPTOR AND USES THEREOF” (priority 2006, published 2011)

Target: T1, alpha1b adrenergic receptor (expressed in Pichia pastoris, membranes) (Homo sapiens (Human)), P35368
T1 chain: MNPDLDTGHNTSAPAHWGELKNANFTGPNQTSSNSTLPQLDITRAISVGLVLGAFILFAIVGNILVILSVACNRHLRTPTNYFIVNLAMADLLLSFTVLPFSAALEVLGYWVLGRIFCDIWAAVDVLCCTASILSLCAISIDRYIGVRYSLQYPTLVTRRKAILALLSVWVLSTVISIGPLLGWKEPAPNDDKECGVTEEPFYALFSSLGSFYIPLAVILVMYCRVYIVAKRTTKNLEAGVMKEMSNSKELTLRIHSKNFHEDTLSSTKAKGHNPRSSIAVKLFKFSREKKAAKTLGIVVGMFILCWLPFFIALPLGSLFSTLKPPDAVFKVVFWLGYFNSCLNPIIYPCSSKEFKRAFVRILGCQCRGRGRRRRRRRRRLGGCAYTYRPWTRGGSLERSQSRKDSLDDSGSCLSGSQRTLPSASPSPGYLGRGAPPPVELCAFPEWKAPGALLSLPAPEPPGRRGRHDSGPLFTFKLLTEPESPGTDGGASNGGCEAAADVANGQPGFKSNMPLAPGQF
Test: displacement of 3H-prazosin (1 nM) from yeast membranes, filtration

B1: AdTx1 peptide (peptide)
peptide: LTCVTSKSIFGITTEDCPDGQNLCFKRRHYVVPKIYDSTRGCAATCPIPENYDSIHCCKTDKCNE
modifications: not checked
Binder B1 has an IC50 of 2.3 µM.
